B1: Hairpin Ribozyme (parent)
chain: GUCCUCUUUCACGUGCGCGUGAAAGAGAGAAGUGAACCAGAGAAACACACGUUGUGGUAUAUUACCUGGUA

Drawing on the RNAGym collection of RNA variant scans (doi:10.7554/elife.80360), this text covers self-cleavage for 167 variants.

Variants of B1 are the subject of the data set. As to the kind of experiment: self-cleavage, relative activity (ratio to wild type); higher = more cleavage; co-transcriptional.
Turning to C4U U58A, the self-cleavage is 0.172. The figure for U5C U70C is 0.277. Take C4U A43G: the self-cleavage was found to be 0.141. As for U5G G57U, the self-cleavage stood at 0.163. The value for U5G G57A was 0.127; that for U5C was 0.648. With U5A, the self-cleavage amounted to 0.368.

With U5G, the self-cleavage was found to be 0.324. As to C4G G13C, the self-cleavage was determined as 0.178. The figure for U5A G27C is 0.187; for U5A G27U it is 0.116. The value for U5A G27A was 0.179; that for C4G G51U was 0.223; that for C4G G51C was 0.207. Regarding U5A C37G, the self-cleavage worked out at 0.18. In the case of C4U C18A, the self-cleavage was 0.4. For the variant C4U A44G, the self-cleavage came to 0.269. The value for C6A A45G was 0.0698; that for C4G G40C was 0.164. As for C4G G57C, the self-cleavage turned out to be 0.143. Take U5C A44C: the self-cleavage was 0.0386.

For the variant C4U U33G, the self-cleavage was found to be 0.0889. Take C4U U33A: the self-cleavage was found to be 0.283. Turning to U5G U60A, the self-cleavage is 0.161. As to U5G U60C, the self-cleavage is 0.593.

With C4G G21A, the self-cleavage was 0.0893. With U5A A39U, the self-cleavage worked out at 0.0927. With U5A A39G, the self-cleavage was 0.101. Consider U5A A64U, for which the self-cleavage came to 0.133.

As for U5A A64C, the self-cleavage amounted to 0.151. For U5C U62G, the self-cleavage is 0.159. With C4G C50G, the self-cleavage was determined as 0.0987. With U5G A28U, the self-cleavage was 0.242. On to U5G A28C, for which the self-cleavage came to 0.0791. As to U5C U58C, the self-cleavage is 0.496. Consider U5C U58A, for which the self-cleavage stood at 0.21. As to U5C G15C, the self-cleavage was 0.469.

On to U5C G15U, for which the self-cleavage was found to be 0.574.

In the case of C4U G17A, the self-cleavage is 0.263. As for U5G U55G, the self-cleavage was 0.2. As to U5A C38A, the self-cleavage came out at 0.142. As to U5G A23G, the self-cleavage stood at 0.372. For U5C A26U, the self-cleavage is 0.505. Consider C4U U52G, for which the self-cleavage is 0.209. The value for C4U U52C was 0.481; that for U5G G51U was 0.534; that for U5G A24G was 0.331. With C4U G57A, the self-cleavage turned out to be 0.155. Take C4U G57U: the self-cleavage is 0.161.

Turning to C4U G57C, the self-cleavage worked out at 0.226. For C4G G19C, the self-cleavage was 0.194. C4U A11U: the self-cleavage is 0.256. C4U A11G: the self-cleavage was determined as 0.425. Turning to U5G G40C, the self-cleavage was found to be 0.14. The figure for U5G G40U is 0.13; for C4G G68C it is 0.134; for C4G G68U it is 0.0845.

On to C4U C10A, for which the self-cleavage was found to be 0.177. Regarding U5G C46A, the self-cleavage is 0.195. For the variant C4U G54C, the self-cleavage stood at 0.364.

As to C4U G54A, the self-cleavage was 0.166. As for U5C A23C, the self-cleavage stood at 0.692. For the variant U5C A23G, the self-cleavage is 0.683. Take U5G A47G: the self-cleavage is 0.123.

In the case of U5C U55G, the self-cleavage came to 0.351. In the case of U5G U8C, the self-cleavage was determined as 0.099. The value for U5G U8G was 0.262; that for U5A U20A was 0.315; that for C4U U53G was 0.412.

Take U5C C50U: the self-cleavage amounted to 0.17. For U5C A49U, the self-cleavage came out at 0.143. Turning to U5A C46U, the self-cleavage came to 0.0644.

In the case of U5A C46A, the self-cleavage came out at 0.16. Regarding C4G C65G, the self-cleavage stood at 0.178. Take C4G C65U: the self-cleavage amounted to 0.224. Take C4G C65A: the self-cleavage was 0.206.

Take U5A C10U: the self-cleavage was 0.333.

Consider C4U A24C, for which the self-cleavage turned out to be 0.33. Take C4U A24G: the self-cleavage worked out at 0.272. The figure for U5G C38A is 0.12; for C4G C38A it is 0.0909; for C4U A49C it is 0.259. With C4U A49U, the self-cleavage was 0.128. Consider U5C A36G, for which the self-cleavage is 0.502. Consider U5C A36C, for which the self-cleavage was determined as 0.576.

Regarding U5C U67C, the self-cleavage stood at 0.144.

As to C4U C16U, the self-cleavage is 0.362. The value for U5A A24C was 0.314.

On to U5A A24G, for which the self-cleavage is 0.381. The value for U5C A11C was 0.764; that for C6A C12U was 0.512; that for U5G A31U was 0.0772. Consider U5C G17U, for which the self-cleavage was 0.794.

As for U5C G17A, the self-cleavage was determined as 0.644.

For C6A C10G, the self-cleavage was 0.377.

In the case of U5A U8G, the self-cleavage came to 0.261.

Regarding U5A U8A, the self-cleavage was 0.285. For the variant U5A U8C, the self-cleavage is 0.141. Take C4G U55G: the self-cleavage was 0.113. U5G C65G: the self-cleavage was 0.0535. C4U G19A: the self-cleavage amounted to 0.327.

With C4U G19C, the self-cleavage was 0.219. The figure for C4G G25C is 0.157; for C4G U7C it is 0.15. Consider C4G U7A, for which the self-cleavage came out at 0.143.

As for U5A U63A, the self-cleavage is 0.206. The figure for U5A U63C is 0.196; for C4U A45C it is 0.122; for C4U A45G it is 0.199. The value for U5C C65A was 0.511; that for U5A G68U was 0.154; that for C6A A11C was 0.415. For C6A A11U, the self-cleavage was 0.399.

Turning to C4U G40C, the self-cleavage was 0.13. On to C4U U7A, for which the self-cleavage came to 0.296. As for U5A G17A, the self-cleavage worked out at 0.435. Take U5A G17C: the self-cleavage is 0.204.

As for U5G U58G, the self-cleavage came to 0.0427.

With U5G A11C, the self-cleavage stood at 0.175. Consider C4U C6G, for which the self-cleavage was 0.0904. C4U C6U: the self-cleavage is 0.192. The figure for C4U C6A is 0.0821; for U5A A26C it is 0.491. As for U5A U14C, the self-cleavage is 0.343.

Consider C4G G27C, for which the self-cleavage came to 0.653. In the case of U5C A61G, the self-cleavage amounted to 0.176. Turning to U5C A61C, the self-cleavage was 0.128. With C4U C65U, the self-cleavage came to 0.175. The value for C4G G54U was 0.228.

With U5A A36G, the self-cleavage was found to be 0.427. With C4U G56A, the self-cleavage worked out at 0.161. In the case of U5C G54A, the self-cleavage was found to be 0.467. Take U5C G54U: the self-cleavage amounted to 0.492. Turning to U5C G54C, the self-cleavage came out at 0.169. For C4U U70C, the self-cleavage was 0.341. As for C4U U70A, the self-cleavage is 0.299.

Take U5A U7G: the self-cleavage was 0.253.

U5G U70A: the self-cleavage worked out at 0.204. The figure for U5G U70C is 0.226. For the variant U5C C18G, the self-cleavage stood at 0.251. On to U5C C18A, for which the self-cleavage turned out to be 0.699. The value for U5A A45U was 0.141; that for U5A A45G was 0.0727. For the variant U5G C48U, the self-cleavage worked out at 0.196. For C6A A30C, the self-cleavage was 0.221. Regarding C4U A35U, the self-cleavage worked out at 0.199. For U5A C16A, the self-cleavage was 0.281.

For U5A C16G, the self-cleavage was found to be 0.231. As for U5A C16U, the self-cleavage came to 0.475. With C4U A28G, the self-cleavage is 0.458. Take C6A A47C: the self-cleavage is 0.221. The value for C6A A47U was 0.182. For the variant U5G G56U, the self-cleavage is 0.125. Regarding U5C U33C, the self-cleavage worked out at 0.0316.

With U5C U33A, the self-cleavage turned out to be 0.149. Turning to U5C U33G, the self-cleavage was found to be 0.208. For U5G G54C, the self-cleavage was 0.212. As for U5G G54A, the self-cleavage is 0.204. C4U A26G: the self-cleavage stood at 0.221. Regarding U5C A71U, the self-cleavage came out at 0.564. On to U5G G25A, for which the self-cleavage came out at 0.225. With U5A G15U, the self-cleavage was 0.495. In the case of U5A G15A, the self-cleavage is 0.388.

Turning to C6A A24G, the self-cleavage was found to be 0.45.

For U5G C66A, the self-cleavage is 0.0473. As to U5C C12U, the self-cleavage amounted to 0.772. The figure for U5A U62G is 0.11.
